Laboratory results as given in patent publication US20220089640A1 (published 2022).
Numbered stars: 1 amine (or outer) side, 2 acyl side, 3 side chain; on linkers, the order of the positions; unused ones are H or OH. Bridge positions count the residues as written; N and C are the ends. Square brackets hold non-standard residues; d marks the D form. Tyr(OMe) = COc1ccc(C[C@H](N[*:1])C(=O)[*:2])cc1; Trp(5-F) = N[C@@H](Cc1c[nH]c2ccc(F)cc12)C(=O)O; mXylylene = c1cc(C[*:1])cc(C[*:2])c1; Mpa = O=C(O)CCS

Experiments:
biotinylated PCSK9 [1] = biological target: T1, biotinylated PCSK9 (UniProt Q8NBP7 31-692, limits assumed, biotinylated (site not stated)); experiment: given in the description of the Alexa FRET Standard assay; method not stated
T1 construct: also called europium-labeled PCSK9

biotinylated PCSK9 [2] = biological target: T1, biotinylated PCSK9; experiment: given in the description of the Alexa FRET Plus assay; method not stated

T1 sequence (Q8NBP7 31-692 limits assumed): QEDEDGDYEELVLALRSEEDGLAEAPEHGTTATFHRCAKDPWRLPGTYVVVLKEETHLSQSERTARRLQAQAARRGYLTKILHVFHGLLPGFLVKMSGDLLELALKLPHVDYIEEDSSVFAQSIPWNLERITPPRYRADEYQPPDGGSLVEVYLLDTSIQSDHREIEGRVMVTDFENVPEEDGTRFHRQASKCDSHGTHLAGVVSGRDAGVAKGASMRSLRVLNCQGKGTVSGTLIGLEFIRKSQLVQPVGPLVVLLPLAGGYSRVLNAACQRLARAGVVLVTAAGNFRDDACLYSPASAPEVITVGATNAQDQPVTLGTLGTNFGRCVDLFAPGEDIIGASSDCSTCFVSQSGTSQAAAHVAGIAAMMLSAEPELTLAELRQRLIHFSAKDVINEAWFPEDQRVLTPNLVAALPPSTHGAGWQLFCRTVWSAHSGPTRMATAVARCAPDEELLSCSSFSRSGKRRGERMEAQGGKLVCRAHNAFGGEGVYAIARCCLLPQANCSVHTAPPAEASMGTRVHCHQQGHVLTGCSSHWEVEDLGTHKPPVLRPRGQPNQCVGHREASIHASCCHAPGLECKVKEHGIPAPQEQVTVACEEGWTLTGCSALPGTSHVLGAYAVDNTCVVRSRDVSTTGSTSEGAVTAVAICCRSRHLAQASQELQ

Row | Binder | Kd (biotinylated PCSK9 [1]) [nM] | Kd (biotinylated PCSK9 [2]) [nM]
1 | [Mpa]K(ALEXAFLUOR 647)G[Trp(5-F)][Trp(5-F)]DHY[2‑methylproline]C-NH2 (linker N-10 via mXylylene, also called AlexaFluor647 (AF) tagged cyclic peptide; AF cyclic peptide) [Reagent A] | 83 | 
2 | [Mpa]K(ALEXAFLUOR 647)[dA][Trp(5-F)][Trp(5-F)]DH[Tyr(OMe)][2‑methylproline]C-NH2 (linker N-10 via mXylylene, also called AlexaFluor647 (AF) tagged cyclic peptide; AF cyclic peptide) [Reagent B] |  | 35
